Data from paper PMC3358304.

Experiment: immunoblot of total Akt, MCF-7
Conditions: glycan lost; control: wild type

| Substance | expression_or_secretion |
| --- | --- |
| Akt (AKT1): T305Y | no change |
| Akt (AKT1): T312Y | no change |
